Test results as given in patent US20240082437A1 (Hoffmann-La Roche, published 2024).

T1: Carcinoembryonic antigen (CEA) (human, UniProt P06731 35-685)
T1 construct: whole, on cells; also called Carcinoembryonic antigen-related cell adhesion molecule 5; CEACAM5
T1 sequence (looked up): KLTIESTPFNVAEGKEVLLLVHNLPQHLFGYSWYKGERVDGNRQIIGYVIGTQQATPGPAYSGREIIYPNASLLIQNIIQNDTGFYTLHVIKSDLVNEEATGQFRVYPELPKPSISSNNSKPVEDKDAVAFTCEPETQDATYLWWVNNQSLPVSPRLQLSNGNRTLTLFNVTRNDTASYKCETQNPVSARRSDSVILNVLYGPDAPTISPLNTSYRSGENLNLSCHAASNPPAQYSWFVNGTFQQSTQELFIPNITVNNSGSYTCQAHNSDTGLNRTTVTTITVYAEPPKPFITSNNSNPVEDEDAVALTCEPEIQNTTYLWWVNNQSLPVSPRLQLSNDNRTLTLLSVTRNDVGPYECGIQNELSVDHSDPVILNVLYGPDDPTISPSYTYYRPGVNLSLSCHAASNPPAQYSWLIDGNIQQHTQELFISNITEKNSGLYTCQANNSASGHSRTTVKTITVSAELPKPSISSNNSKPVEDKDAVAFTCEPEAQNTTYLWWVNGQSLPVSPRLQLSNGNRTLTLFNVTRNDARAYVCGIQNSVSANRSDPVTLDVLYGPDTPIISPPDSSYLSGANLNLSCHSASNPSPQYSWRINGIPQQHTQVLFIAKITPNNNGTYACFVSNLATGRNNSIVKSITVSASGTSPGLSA


Key:
[1] = molecular target: T1, Carcinoembryonic antigen (CEA); test: flow cytometry on MKN45 cells (CEA), hemibody mixed 1:1 with human ISO control, detected with anti-human IgG(H+L) (FITC in the legend box, A488 in the title)
Protocol: To assess the functionality of the split antibodies or hemibodies, MKN-45 cells were detached from the culture vessel using accutase at 37° C. for 10 minutes. Subsequently, the cells were washed twice in PBS, and seeded into 96 well v-bottom plates to a final density of 4×10⁶ cells/well.
Subsequently, the cells were incubated for 1 h on ice and washed twice in PBS. The cell pellet was resuspended and 40 μl/well of detection reagent was added, either <human IgG(H+L)>FITC, (10 μg/ml) or Pb_Dotam_FITC 1:100=>(10 μg/ml) in PBS/5% FCS. After 60 min incubation on ice, the cells were washed twice in PBS and resuspended in 200 μl PBS/5% FCS for measurement of FITC fluorescence using a FACS canto.

[2] = molecular target: T1, Carcinoembryonic antigen (CEA); test: FACS on MKN-45 cells, detection with anti-huIgG(H+L)-Alexa488
Protocol: MKN-45 cells were detached from the culture bottle using Trypsin and were counted using a Casy cell counter. After pelleting at 4° C., 300 g the cells were resuspended in FACS Buffer (2.5% FCS in PBS), adjusted to 2.0E+06 cells/mL dispensed to 96-well PP V-bottom-Platte (25 μL/well=5.0E+04Zellen/well).
Both antibodies were added to the cells either separated followed by buffer or combined and incubated at 4° C. for 1 h. The cells were then washed twice in FACS buffer. After washing, the cells were resuspended in 50 μL FACS-buffer containing secondary antibody (<huIgG(H+L)>-Alexa488, c=10 μg/mL) and incubated 1 h at 4° C. The cells were then washed twice in FACS buffer and resuspended in 70 μl/well FACS buffer for measurement using a FACS Canto (BD, Pharmingen).

Row | EC50 (read off the curve) [1] [µg/mL] | EC50 [2] [µg/mL] | Binder
1 | ~1 | – | P1AD8749 (antibody, human IgG1, kappa, L234A L235A, Split antibody (hemibody) with CH1A1A anti-CEA Fabs; also called CEA-split-DOTAM-VH; PRIT Split Antibody with DOTAM-VH) heavy 1: QVQLVQSGAEVKKPGASVKVSCKASGYTFTEFGMNWVRQAPGQGLEWMGWINTKTGEATYVEEFKGRVTFTTDTSTSTAYMELRSLRSDDTAVYYCARWDFAYYVEAMDYWGQGTTVTVSSASTKGPSVFPLAPSSKSTSGGTAALGCLVKDYFPEPVTVSWNSGALTSGVHTFPAVLQSSGLYSLSSVVTVPSSSLGTQTYICNVNHKPSNTKVDKKVEPKSCDKTHTCPPCPAPEAAGGPSVFLFPPKPKDTLMISRTPEVTCVVVDVSHEDPEVKFNWYVDGVEVHNAKTKPREEQYNSTYRVVSVLTVLHQDWLNGKEYKCKVSNKALGAPIEKTISKAKGQPREPQVCTLPPSRDELTKNQVSLSCAVKGFYPSDIAVEWESNGQPENNYKTTPPVLDSDGSFFLVSKLTVDKSRWQQGNVFSCSVMHEALHNHYTQKSLSLSPG heavy 2: not shown light: DIQMTQSPSSLSASVGDRVTITCKASAAVGTYVAWYQQKPGKAPKLLIYSASYRKRGVPSRFSGSGSGTDFTLTISSLQPEDFATYYCHQYYTYPLFTFGQGTKLEIKRTVAAPSVFIFPPSDEQLKSGTASVVCLLNNFYPREAKVQWKVDNALQSGNSQESVTEQDSKDSTYSLSSTLTLSKADYEKHKVYACEVTHQGLSSPVTKSFNRGEC
2 | – | 2.7 | P1AF0712 (antibody, Split antibody with CH1A1A anti-CEA Fabs; Both heavy chains carry VH-CH1; also called CEA specific SPLIT antibody (DOTA-VL); P6_A) heavy 1: not shown heavy 2: QVQLVQSGAEVKKPGASVKVSCKASGYTFTEFGMNWVRQAPGQGLEWMGWINTKTGEATYVEEFKGRVTFTTDTSTSTAYMELRSLRSDDTAVYYCARWDFAYYVEAMDYWGQGTTVTVSSASTKGPSVFPLAPSSKSTSGGTAALGCLVKDYFPEPVTVSWNSGALTSGVHTFPAVLQSSGLYSLSSVVTVPSSSLGTQTYICNVNHKPSNTKVDKKVEPKSCDKTHTCPPCPAPEAAGGPSVFLFPPKPKDTLMISRTPEVTCVVVDVSHEDPEVKFNWYVDGVEVHNAKTKPREEQYNSTYRVVSVLTVLHQDWLNGKEYKCKVSNKALGAPIEKTISKAKGQPREPQVCTLPPSRDELTKNQVSLSCAVKGFYPSDIAVEWESNGQPENNYKTTPPVLDSDGSFFLVSKLTVDKSRWQQGNVFSCSVMHEALHNHYTQKSLSLSPGGGGGSGGGGSGGGGSGGGGSQAVVIQESALTTPPGETVTLTCGSSTGAVTASNYANWVQEKPDHLFTGLIGGHNNRPPGVPARFSGSLIGDKAALTIAGTQTEDEAIYFCALWYSDHWVIGGGTKLTVL light: DIQMTQSPSSLSASVGDRVTITCKASAAVGTYVAWYQQKPGKAPKLLIYSASYRKRGVPSRFSGSGSGTDFTLTISSLQPEDFATYYCHQYYTYPLFTFGQGTKLEIKRTVAAPSVFIFPPSDEQLKSGTASVVCLLNNFYPREAKVQWKVDNALQSGNSQESVTEQDSKDSTYSLSSTLTLSKADYEKHKVYACEVTHQGLSSPVTKSFNRGEC
3 | – | 2.3 | P1AF0713 (antibody, Split antibody with CH1A1A anti-CEA Fabs; Both heavy chains carry VH-CH1; also called CEA specific SPLIT antibody (DOTA-VH-AST); P6_B) heavy 1: QVQLVQSGAEVKKPGASVKVSCKASGYTFTEFGMNWVRQAPGQGLEWMGWINTKTGEATYVEEFKGRVTFTTDTSTSTAYMELRSLRSDDTAVYYCARWDFAYYVEAMDYWGQGTTVTVSSASTKGPSVFPLAPSSKSTSGGTAALGCLVKDYFPEPVTVSWNSGALTSGVHTFPAVLQSSGLYSLSSVVTVPSSSLGTQTYICNVNHKPSNTKVDKKVEPKSCDKTHTCPPCPAPEAAGGPSVFLFPPKPKDTLMISRTPEVTCVVVDVSHEDPEVKFNWYVDGVEVHNAKTKPREEQYNSTYRVVSVLTVLHQDWLNGKEYKCKVSNKALGAPIEKTISKAKGQPREPQVCTLPPSRDELTKNQVSLSCAVKGFYPSDIAVEWESNGQPENNYKTTPPVLDSDGSFFLVSKLTVDKSRWQQGNVFSCSVMHEALHNHYTQKSLSLSPG heavy 2: not shown light: DIQMTQSPSSLSASVGDRVTITCKASAAVGTYVAWYQQKPGKAPKLLIYSASYRKRGVPSRFSGSGSGTDFTLTISSLQPEDFATYYCHQYYTYPLFTFGQGTKLEIKRTVAAPSVFIFPPSDEQLKSGTASVVCLLNNFYPREAKVQWKVDNALQSGNSQESVTEQDSKDSTYSLSSTLTLSKADYEKHKVYACEVTHQGLSSPVTKSFNRGEC
